Data as given in paper PMC7145534, “Are the intrinsically disordered linkers involved in SSB binding to accessory proteins?” (Nucleic Acids Research, 2019).
“Also recorded” adds a separate entry of the source.

How the values were obtained:
RecO = conditions: for sedimentation coefficient, SSB alone: 0.35 μM tetramer, BTP pH 7.0, 200 mM NaCl, 25°C, no RecO
Description: Sedimentation velocity experiments were performed with an Optima XL-A analytical ultracentrifuge and An50Ti rotor (Beckman Coulter, Fullerton, CA, USA) at 42 000 rpm (25°C) as described ([50]). The concentrations used were 1–2 μM SIPs, 0.3–0.5 μM SSB tetramers, while monitoring absorbance at 230 or 280 nm. The experiments with SSB-Ct peptides were performed in Buffer BTP at pH 8.0 and 50 mM NaCl. The experiment with SSB proteins and the deletion constructs were performed in Buffer BTP at pH 7.0 and 200 mm NaCl. The sample (380 μl) and buffer (394 μl) were loaded into each sector of an Epon charcoal-filled two-sector centerpiece. Absorbance data were collected by scanning the sample cells at intervals of 0.003 cm. Data were analyzed using SEDFIT, to obtain c(s) distributions ([70]). The c(s) distribution function defines the populations of species with different sedimentation rates and represents a variant of the distribution of Lamm equation solutions ([70]). The density and viscosity of the experimental buffers at 25°C were determined using [sequence] […] The partial specific volume of (dT)70 used was 0.56 ml/g. In the experiments involving more than one species, the partial specific volumes of complexes were calculated assuming additivity using Equation (4), where = number of moles of species ‘i’, = molecular weight of species ‘i’, and = partial specific volume of each species i.(4)
RecO binding to SSB tetramers with portions of the IDL deleted. […] (C) The results of sedimentation velocity experiments, plotted as the c(s) distribution ([70]) for each SSB construct (0.35 μM tetramer) in the absence (black lines) and presence (red lines) of 2.5 molar excess of RecO (3.5 μM) per C-terminus.

(dT)70 = assay: ITC of SSB tetramers with (dT)70; assay type: binding; conditions: BTP pH 7.0, 200 mM NaCl
Description: Isothermal titration calorimetry (ITC) experiments were performed using a VP-ITC titration microcalorimeter (Malvern Panalytical, Malvern, UK) ([68]). All proteins and oligonucleotides were dialyzed extensively against the indicated buffer and cleared by centrifugation at 14 000 rpm for 15 min at 4°C. The concentrations were determined thereafter. For experiments with the SSB-Ct peptides and SIPs, 40–50 μM peptides were titrated into 1–2 μM SIPs in Buffer BTP at pH 8.0 and 50 mM NaCl. For experiments with the full-length SSB and its deletion mutants and SIPs, SSB tetramer (8–10 μM) was titrated into SIP (1 μM) in Buffer BTP at pH 7.0 and 200 mM NaCl. The heats of dilution were obtained by blank titrations in which the titrant species is titrated into the buffer, and corrections for heats of dilution were applied.
(dT)70 and wtSSB. (a) SSB-A (10 µM), a homo-tetrameric SSB variant containing an
additional six amino acids, TGASGT, at the C-terminus of each subunit, was titrated into
RecO (1 µM) in buffer BTP (pH 7.0, 200 mM NaCl) at 15° C and (b) 25° C.
(5.9 µM) was titrated into c (1 µM) in buffer T (10 mM Tris-HCl, pH 8.1, 200 mM NaCl,
0.1 mM EDTA) at 25° C. […] (d) dT70 (60 µM) was
(e) (dT)70 (15 µM) was titrated into SSB-A (1 µM) in buffer T at 25° C.
(f) (dT)70 (15 µM) is titrated into

E. coli RecO = assay: ITC of SSB tetramers (apo) binding to RecO; parameters: species or system Escherichia coli; conditions: apo, 25°C
Description: The concentrations were determined thereafter.

DNA Pol III (χ) = conditions: cited from earlier work
Description: When DNA is bound to the DBD, the acidic tip no longer interacts with the DBD and thus is more available to interact with a SIP. This is supported by the observation that ΔH = −6.0 ± 0.1 kcal/mol for RecO binding to the SSBΔ120-166–(dT)70 complex, which should not contain contributions from the acidic tip-DBD intramolecular interactions.

PriA = conditions: previous study; cited from earlier work
Description: All binding reactions were performed under identical solution conditions, although additional experiments were performed at a lower [NaCl] for PriC as indicated, ...

[1] = biological target: Escherichia coli PriC (E. coli) (UniProt P23862); assay: AUC; sedimentation velocity, 42 000 rpm, 25°C; PriC at 2 μM, without and with 30-fold excess P15; buffer BTP pH 8.0, same conditions as the ITC of PriC
[2] = biological target: T1, Escherichia coli RecO protein (E. coli, UniProt P0A7H3 1-242); assay: ITC; apo SSB tetramer (9–10 μM) titrated into RecO (1 μM); buffer BTP pH 7.0, 200 mM NaCl, 25°C; N fixed to 4 RecO per tetramer, K and ΔH per C-terminus; conditions: both partners purified
T1 construct: E. coli RecO, recombination mediator of the RecF pathway; source: E. coli BL21(DE3)pLysS, plasmid pMCSG7, purified (Ni-NTA, HiTrap Heparin HP) after His-tag cleavage with TEV protease
T1 sequence (looked up): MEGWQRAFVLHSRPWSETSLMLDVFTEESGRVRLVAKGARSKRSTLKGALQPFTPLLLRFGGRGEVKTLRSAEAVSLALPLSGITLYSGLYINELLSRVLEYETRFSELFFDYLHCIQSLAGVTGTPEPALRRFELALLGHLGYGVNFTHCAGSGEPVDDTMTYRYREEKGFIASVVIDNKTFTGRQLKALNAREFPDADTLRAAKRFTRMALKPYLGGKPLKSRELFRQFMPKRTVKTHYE

[3] = biological target: the molecule itself; assay: AUC; sedimentation velocity, 42 000 rpm, 25°C; SSB construct 0.35 μM tetramer alone and with 3.5 μM RecO (2.5 molar excess per C-terminus); buffer BTP pH 7.0, 200 mM NaCl
[4] = biological target: T1, Escherichia coli RecO protein; assay: ITC; SSB tetramer–(dT)70 complex (9–10 μM) titrated into RecO (1 μM); buffer BTP pH 7.0, 200 mM NaCl, 25°C; N fixed to 4, K and ΔH per C-terminus; conditions: both partners purified
[5] = biological target: Escherichia coli RecO protein (E. coli) (UniProt P0A7H3); assay: as above
[6] = biological target: Escherichia coli RecO protein (E. coli) (UniProt P0A7H3); assay: ITC; apo SSBΔ120-166 tetramer and RecO; 10°C; N fixed to 4 in Table 3
[7] = biological target: Escherichia coli RecO protein (E. coli) (UniProt P0A7H3); assay: ITC; SSB tetramer (10 µM) titrated into RecO (1 µM); buffer BTP pH 7.0, 200 mM NaCl, 10°C; N floated, N = RecO per SSB tetramer; ΔH per C-terminus
[8] = biological target: Escherichia coli RecO protein (E. coli) (UniProt P0A7H3); assay: ITC; apo SSB tetramer (9–10 μM) titrated into RecO (1 μM); buffer BTP pH 7.0, 200 mM NaCl, 25°C; N fixed to 4 RecO per tetramer, K and ΔH per C-terminus

wtSSB: E. coli single strand DNA binding protein, homo-tetramer, wild type
sedimentation coefficient, SSB alone (RecO): 1.4 S
complex formation with RecO (RecO; 10-fold molar excess of RecO to SSB tetramer): RecO forms complexes with wtSSB
binding to (dT)70 by ITC ((dT)70): binds stoichiometrically
K (E. coli RecO; BTP pH 7, 200 mM NaCl): (1.5 ± 0.2) × 10^6 M^−1

MDFDDDIPF [P9]
affinity and ΔH for χ binding versus (dT)70-bound SSB (DNA Pol III (χ)): very similar
binding to χ (DNA Pol III (χ); previous study): binds with specificity
binding to PriA (PriA): binds with specificity

Escherichia coli PriC (from UniProt P23862 1-175) (natural protein)
percent of the monomeric species [1]: 48.1%

B1: SSBΔ130-166 tetramer (natural protein, E. coli, UniProt P0AGE0 1-178, looked up)
chain: MASRGVNKVILVGNLGQDPEVRYMPNGGAVANITLATSESWRDKATGEMKEQTEWHRVVLFGKLAEVASEYLRKGSQVYIEGQLRTRKWTDQSGQDRYTTEVVVNVGGTMQMLGGRQGGGAPAGGNIGGGPPMDFDDDIPF
notes: E. coli SSB with residues 130-166 of the IDL deleted, acidic tip kept; All three PXXP motifs deleted; Used apo and in complex with (dT)70
dH (per tip, ΔH/4) [2]: -2.3 ± 0.1 kcal/mol
stoichiometry N [3]: 4
dH (per tip, ΔH/4) [4]: -4.5 ± 0.1 kcal/mol

B2: SSBΔ151-166 tetramer (natural protein, E. coli, UniProt P0AGE0 1-178, looked up)
chain: MASRGVNKVILVGNLGQDPEVRYMPNGGAVANITLATSESWRDKATGEMKEQTEWHRVVLFGKLAEVASEYLRKGSQVYIEGQLRTRKWTDQSGQDRYTTEVVVNVGGTMQMLGGRQGGGAPAGGNIGGGQPQGGWGQPQQPQGGNQFSGGPPMDFDDDIPF
notes: E. coli SSB with residues 151-166 of the IDL deleted, acidic tip kept; Two C-terminal PXXP motifs deleted; Used apo and in complex with (dT)70
sedimentation coefficient, SSB alone (RecO): 1.4 S
dH (per tip, ΔH/4) [2]: -7 ± 0.1 kcal/mol
stoichiometry N [3]: 4
dH (per tip, ΔH/4) [4]: -8.7 ± 0.1 kcal/mol

B3: SSBΔ120-166 tetramer (natural protein, E. coli, UniProt P0AGE0 1-178, looked up)
chain: MASRGVNKVILVGNLGQDPEVRYMPNGGAVANITLATSESWRDKATGEMKEQTEWHRVVLFGKLAEVASEYLRKGSQVYIEGQLRTRKWTDQSGQDRYTTEVVVNVGGTMQMLGGRQGGGPPMDFDDDIPF
notes: E. coli SSB with residues 120-166 of the IDL deleted, acidic tip kept; All three PXXP motifs deleted; only nine residues of the IDL left; Used apo and in complex with (dT)70
dH (per tip, ΔH/4) [5]: -6 kcal/mol
sedimentation coefficient, SSB alone (RecO): 1.3 S
Ka [6]: 370000 M⁻¹
dH (per tip, ΔH/4) [6]: -8.1 kcal/mol
stoichiometry N [3]: 4
Ka [7]: 373000 M⁻¹
stoichiometry N [7]: 4.03
dH (per tip, ΔH/4) [8]: 0 kcal/mol
K (observed association equilibrium constant) (E. coli RecO; BTP pH 7.0, 200 mM NaCl, N fixed to 4): Not detected
RecO binding detected by ITC (E. coli RecO; pH 7.0, 200 mM NaCl): undetectable; also recorded: could not be detected
